The text below walks through data of PMC7642358 (Nature Communications, 2020).

The target of the assay is SARS-CoV-2 spike receptor-binding domain (2019-nCoV RBD-SD1, residues 319–566) (SARS-CoV-2, UniProt P0DTC2).

B1: 18 (VHH)
VHH: QVQLVESGGGLVQAGGSLRLSCAASGFPVDYKSMWWYRQAPGKEREWVAAIDSAGDTTTYADSVKGRFTISRDNAKNTVYLQMNSLKPEDTAVYYCTVWVGTTYTGQGTQVTVS
With B1, the binding result is reported as “binds”.

B2: 32 (VHH)
VHH: QVQLVESGGGLVQAGGSLRLSCAASGFPVAHKSMWWYRQAPGKEREWVAAIESTGDTTRYADSVKGRFTISRDNAKNTVYLQMNSLKPEDTAVYYCVVWVGEVYRGQGTQVTVS
In the case of B2, the binding result is given as “binds”.

B3: Sybody 15 (VHH)
VHH: QVQLVESGGGLVQAGGSLRLSCAASGFPVYEHYMRWYRQAPGKEREWVAAIQSHGNHTAYADSVKGRFTISRDNAKNTVYLQMNSLKPEDTAVYYCFVVVGNGYTGQGTQVTVS
On to B3, for which the binding result was “binds”.

B4: Sybody 9 (VHH)
VHH: QVQLVESGGGLVQAGGSLRLSCAASGFPVGQQHMYWYRQAPGKEREWVAAIYSYGHITKYADSVKGRFTISRDNAKNTVYLQMNSLKPEDTAVYYCWVYVGDYYEGQGTQVTVS
For B4, the binding result is given as “binds”.

B5: Sybody 8 (VHH)
VHH: QVQLVESGGGLVQAGGSLRLSCAASGFPVKSYEMEWYRQAPGKEREWVAAISSYGEYTEYADSVKGRFTISRDNAKNTVYLQMNSLKPEDTAVYYCYVWVGDSYLGQGTQVTVS
Take B5: the binding result is on record as “binds”.

B6: Sybody 11 (VHH)
VHH: QVQLVESGGGLVQAGGSLRLSCAASGFPVRTENMHWYRQAPGKEREWVAAIYSFGATMLYADSVKGRFTISRDNAKNTVYLQMNSLKPEDTAVYYCAVNVGEWYEGQGTQVTVS
B6: the binding result is given as “binds”.

B7: Sybody 13 (VHH)
VHH: QVQLVESGGGLVQAGGSLRLSCAASGFPVENYYMRWYRQAPGKEREWVAAIESSGAETRYADSVKGRFTISRDNAKNTVYLQMNSLKPEDTAVYYCYVVVGWGYAGQGTQVTVS
For B7, the binding result is “binds”.

B8: Sybody 6 (VHH)
VHH: QVQLVESGGGLVQAGGSLRLSCAASGFPVNHTRMYWYRQAPGKEREWVAAIQSHGQNTFYADSVKGRFTISRDNAKNTVYLQMNSLKPEDTAVYYCYVWVGNQYWGQGTQVTVS
For B8, the binding result is reported as “binds”.

B9: 33 (VHH)
VHH: QVQLVESGGGLVQAGGSLRLSCAASGFPVKTAEMEWYRQAPGKEREWVAAISSTGKSTFYADSVKGRFTISRDNAKNTVYLQMNSLKPEDTAVYYCHVYVGRTYIGQGTQVTVS
B9: the binding result is listed as “binds”.

B10: Sybody 2 (VHH)
VHH: QVQLVESGGGLVQAGGSLRLSCAASGFPVSNEEMTWYRQAPGKEREWVAAIASNGNQTEYADSVKGRFTISRDNAKNTVYLQMNSLKPEDTAVYYCYVYVGASYIGQGTQVTVS
B10: the binding result is on record as “binds”.

B11: 27 (VHH)
VHH: QVQLVESGGGLVQAGGSLRLSCAASGFPVKASEMVWYRQAPGKEREWVAAILSQGHATEYADSVKGRFTISRDNAKNTVYLQMNSLKPEDTAVYYCYVWVGRSYIGQGTQVTVS
For B11, the binding result is “binds”.

B12: 31 (VHH)
VHH: QVQLVESGGGLVQAGGSLRLSCAASGFPVWSAEMTWYRQAPGKEREWVAAINSHGRITEYADSVKGRFTISRDNAKNTVYLQMNGLKPEDTAVYYCYVYVGKSYIGQGTQVTVS
Take B12: the binding result is reported as “binds”.

B13: 25 (VHH)
VHH: QVQLVESGGGLVQAGGSLRLSCAASGFPVESTEMTWYRQAPGKEREWVAAIESEGHGTEYADSVKGRFTISRDNAKNTVYLQMNSLKPEDTAVYYCYVYVGAGYIGQGTQVTVS
As for B13, the binding result is reported as “binds”.

B14: Sybody 17 (VHH)
VHH: QVQLVESGGGLVQAGGSLRLSCAASGFPVKASEMEWYRQAPGKEREWVAAIASIGYNTYYADSVKGRFTISRDNAKNTVYLQMNSLKPEDTAVYYCLVYVGATYIGQGTQVTVS
Regarding B14, the binding result is on record as “binds”.

B15: Sybody 5 (VHH)
VHH: QVQLVESGGGLVQAGGSLRLSCAASGFPVAQQEMTWYRQAPGKEREWVAAISSIGSITHYADSVKGRFTISRDNAKNTVYLQMNSLKPEDTAVYYCYVYVGASYIGQGTQVTVS
B15: the binding result is reported as “binds”.

B16: 19 (VHH)
VHH: QVQLVESGGGLVQAGGSLRLSCAASGFPVYNEEMTWYRQAPGKEREWVAAIASYGRLTEYADSVKGRFTISRDNAKNTVYLQMNSLKPEDTAVYYCYVYVGQSYIGQGTQVTVS
With B16, the binding result was “binds”.

B17: Sybody 10 (VHH)
VHH: QVQLVESGGGLVQAGGSLRLSCAASGFPVESAEMEWYRQAPGKEREWVAAITSQGTITEYADSVKGRFTISRDNAKNTVYLQMNSLKPEDTAVYYCYVYVGASYIGQGTQVTVS
Regarding B17, the binding result is “binds”.

B18: Sybody 3 (VHH)
VHH: QVQLVESGGGLVQAGGSLRLSCAASGFPVSHTEMTWYRQAPGKEREWVAAIESQGVYTHYADSVKGRFTISRDNAKNTVYLQMNSLKPDDTAVYYCYVYVGGGYIGQGTQVTVS
Regarding B18, the binding result was “binds”.

B19: 35 (VHH)
VHH: QVQLVESGGGLVQAGGSLRLSCAASGFPVNYTIMFWYRQAPGKEREWVAAIKSTGEHTLYADSVKGRFTISRDNAKNTVYLQMNSLKPEDTAVYYCNVKDAGQGWQEYDYWGQGTQVTVS
Turning to B19, the binding result is recorded as “binds”.

B20: 29 (VHH)
VHH: QVQLVESGGGLVQAGGSLRLSCAASGFPVHYTYMRWYRQAPGKEREWVAAIKSYGQHTTYADSVKGRFTISRDNAKNTVYLQMNSLKPEDTAVYYCEVVGETYRGQGTQVTVS
Turning to B20, the binding result is “binds”.

B21: 22 (VHH)
VHH: QVQLVESGGGLVQAGGSLRLSCAASGFPVNHYEMEWYRQAPGREREWVAAIMDSTGYETAYADSVKGRFTISRDNAKNTVYLQMNSLKPEDTAVYYCYVYVGASYIGQGTQVTVS
For B21, the binding result is listed as “binds”.

B22: Sybody 1 (VHH)
VHH: QVQLVESGGGLVQAGGSLRLSCAASGFPVNTSEMAWYRQAPGKEREWVAAIESSGDETYYADSVKGRFTISRDNAKNTVYLQMNSLKPEDTAVYYCYVYVGGSYLGQGTQVTVS
With B22, the binding result is given as “binds”.

B23: Sybody 4 (VHH)
VHH: QVQLVESGGGLVQAGGSLRLSCAASGFPVNGFNMEWYRQAPGKEREWVAAITSEGNYTYYADSVKGRFTISRDNAKNTVYLQMNSLKPEDTAVYYCYVYVGQSYIGQGTQVTVS
Turning to B23, the binding result is “binds”.

B24: Sybody 7 (VHH)
VHH: QVQLVESGGGLVQAGGSLRLSCAASGFPVNAEEMEWYRQAPGKEREWVAAISSSGDWTYYADSVKGRFTISRDNAKNTVYLQMNSLKPEDTAVYYCLVYVGSTYIGQGTQVTVS
Take B24: the binding result is “binds”.

B25: Sybody 16 (VHH)
VHH: QVQLVESGGGLVRAGGSLRLSCAASGFPVASQEMTWYRQAPGKEREWVAAISSSGRQTEYADSVKGRFTISRDNAKNTVYLQMNSLKPEDTAVYYCYVYVGGSYIGQGTQVTVS
As to B25, the binding result is given as “binds”.

B26: 30 (VHH)
VHH: QVQLVESGGGLVQAGGSLRLSCAASGFPVWYKEMEWYRQAPGKEREWVAAITSAGHHTYYADSVKGRFTISRDNAKNTVYLQMNSLKPEDTAVYYCYVYVGESYIGQGTQVTVS
As for B26, the binding result is on record as “binds”.

B27: 21 (VHH)
VHH: QVQLVESGGGLVQAGGSLRLSCAASGFPVKESEMTWYRQARGKEREWVAAINSHGMTTHYADSVKGRFTISRDNAKNTVYLQMNSLKPEDTAVYYCYVYVGGSYIGQGTQVTVS
Consider B27, for which the binding result was “binds”.

B28: Sybody 14 (VHH)
VHH: QVQLVESGGGLVQAGGSLRLSCAASGFPVATAEMVWYRQAPGKEREWVAAIMSAGQETEYADSVKGRFTISRDNAKNTVYLQMNSLKPEDTAVYYCYVWVGKSYIGQGTQVTVS
B28: the binding result was “binds”.

B29: 28 (VHH)
VHH: QVQLVESGGGLVQAGGSLRLSCAASGFPVYSAEMEWYRQAPGKEREWVAAISSYGTNTYYADSVKGRFTISRDNAKNTVYLQMNSLKPEDTAVYYCYVYVGSSYIGQGTQVTVS
Regarding B29, the binding result is given as “binds”.

B30: 24 (VHH)
VHH: QVQLVESGGGLVQAGGSLRLSCAASGFPVSTAEMEWYRQAPGKEREWVAAISSSGTWTYYADSVKGRFTISRDNAKNTVYLQMNSLKPEDTAVYYCYVWVGSSYLGQGTQVTVS
Take B30: the binding result was “binds”.

B31: 37 (VHH)
VHH: QVQLVESGGGLVQAGGSLRLSCAASGFPVYNTWMEWYRQAPGKEREWVAAITSYGFHTYYADSVKGRFTISRDNAKNTVYLQMNSLKPEDTAVYYCNVKDEGNTTAYYDYWGQGTQVTVS
With B31, the binding result was “binds”.

B32: 36 (VHH)
VHH: QVQLVESGGGLVQAGGSLRLSCAASGFPVEWKHMTWYRQAPGKEREWVAAIASTGAYTHYADSVKGRFTISRDNAKNTVYLQMNSLKPEDTAVYYCNVKDWGSKTTYYDYWGQGTQVTVS
As to B32, the binding result is recorded as “binds”.

B33: 38 (VHH)
VHH: QVQLVESGGGLVQAGGSLRLSCAASGFPVYWAHMTWYRQAPGKEREWVAAIVSSGAYTAYADSVKGRFTISRDNAKNTVYLQMNSLKPEDTAVYYCNVKDFGTQEHYYDYWGQGTQVTVS
As to B33, the binding result is listed as “binds”.
